System: MS2 coat protein
Test: apparent KD of MS2 coat protein; designed switch direction (-1 OFF switch, 1 ON switch): -1; higher = weaker reporter binding
Method in brief: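 The buffer was Tris-HCl pH 7.5 with KCl, MgCl2, BSA, DTT, tRNA and Tween-20. In it, SNAP-549-labelled MS2 coat protein was titrated in doubling steps from 0.7 or 1.5 nM to 3 µM over chip-bound RNA switches transcribed by stalled E. coli RNA polymerase on Illumina chips. Apparent KD is the per-design median over clusters of curve fits to normalised fluorescence.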

[1] = input ligand: microRNA oligo, concentration not stated

Sequence | apparent KD of MS2 coat protein (input ligand: FMN 200 uM) | apparent KD of MS2 coat protein (input ligand: none) | apparent KD of MS2 coat protein [1] | apparent KD of MS2 coat protein (Eterna round: R95, input ligand: microRNA oligo, concentration not stated)
GGCACACAUGAGGAUCACCCAUGUGAGGAUAUGUGGCGAUCGUCGAUAGACGAUAGCCACAGAAGGCACAGGCC [Mat - Exclusion 1 - Eli Mod - D21] (Eterna round: R97, puzzle: Exclusion 1) | 23.2 nM | 19.2 nM | – | –
GGCACACAUGAGGAUCACCCAUGUGAGGAUAUGUGGCGAUCGUCGAUAGACGAUAGCCACAGAAGGCACAUGCC [Mat - Exclusion 1 - Eli Mod - D9] (Eterna round: R97, puzzle: Exclusion 1) | 39.4 nM | 17.8 nM | – | –
GGCACACAUGUAGGAUAUCUGCACGUUUAGUGCAGAGAAGGACAUGAGGAUCACCCAUGUAAUUAAGAUCAAUUAUUAAGUGCC [ENG1/3-A2] (Eterna round: R96, puzzle: Exclusion NG 1) | 564 nM | 58.3 nM | 48.6 nM | –
GGCAUAAACGAGGAUAUCGUAUCGGAAACGAUACGAGAAGGUGUAACAUGAGGAUCACCCAUGUUCCUCAAGCC [Mat - Exclusion 6 - Eli Mod - D58] (puzzle: Exclusion 6) | – | – | – | 38.1 nM
GGCAUGCAAGGAUAUACUUACAGUGAUGUUCGAAUAAGGCUACUUGAGGAUCACCCAAGUAGAAGGUGCAUGCC [Exclusion 2 (Mod JL EX2 4.74 Vienna UCT mod of Mamaed)] (Eterna round: R97, puzzle: Exclusion 2) | 203 nM | 26.8 nM | – | –
GGCAUGCAAGGAUAUACUUACGGUGAUGUUCGAAGCUUUCUACUUGAGGAUCACCCAAGUAGAAGGUGCAUGCC [jl-ex2.4.75 ViennaUCT mod] (Eterna round: R97, puzzle: Exclusion 2) | 10.5 nM | 21.1 nM | – | –
GGCAUGUGAGGAUAUGUACCUGAGUGCUUUGCGCUCAGGAAACAGAAGGCACAUGAGGAUCACCCAUGUGAUAA [jl-ex4-4.49 ViennaUCT mod] (Eterna round: R97, puzzle: Exclusion 4) | 67.7 nM | 710 nM | – | –
GGCCAGAUAGGAUAUACUUGAGGAUCACCCAAGUAAAGGAGCAAGCUCCGAUCCUUUGGUAGAAGGAUCGGCCA [Diqulees] (Eterna round: R97, puzzle: Exclusion 3) | 92.7 nM | 52.8 nM | – | –
GGCCGUAAUAAGGAUAUCACUAGCCUCGGCUAGUGAGAAGGUAUUACAUGAGGAUCACCCAUGUGGUCAGGCCA [E6/4-B2] (Eterna round: R97, puzzle: Exclusion 6) | 903 nM | 285 nM | – | –
GGCCUUCCGCAAGCUUUUUACAUGAGGAUCACCCAUGUGGUUUUUAGUCUUAUGUUCGGGCCCGUGUGGGCUCGGGC [-25.5, -46.5, A 13%] (Eterna round: R97, puzzle: Sensor, turn-off variant 1) | 28.4 nM | 29 nM | – | –
GGCGAAGUAGGAUAUACAUGAGGAUCACCCAUGUAACCUGAUGGCGUAGGUCUUCUAUGUAGAAGGGCUGCGCC [jl-ex3-4.38 ViennaUCT mod] (Eterna round: R97, puzzle: Exclusion 3) | 16 nM | 15.6 nM | – | –
GGCGGACAUGAGGAUCACCCAUGUCAGGAUAUUAGGCGAUCGUCGAUAGACGAUAGCCUGAGAAGGGACGCGCC [Mat - Exclusion 1 - Eli Mod - D13] (Eterna round: R97, puzzle: Exclusion 1) | 18.6 nM | 17.7 nM | – | –
GGCUGACAUGUAGGAUAUCUGCACGUGUAGUGCAGAGAAGGACAUGAGGAUCACCCAUGUAUAGCGACUUCGGUCGCAACAGCC [ENG1/2-A3] (Eterna round: R96, puzzle: Exclusion NG 1) | – | – | 35.9 nM | –

From the supplement of paper PMC9170038
